# Columns and labels:
# [1] = biological target: MERS-CoV spike (S) protein (MERS-CoV) (UniProt K9N5Q8); assay: cell-based or functional assay
# [2] = biological target: SARS-CoV-2 spike (S) glycoprotein (SARS-CoV-2) (UniProt P0DTC2); assay: cell-based or functional assay
substance,measurement,setting,value
"EK1 lipopeptide (EK1C4), cholesterol-conjugated","IC50, plaque-neutralization test, MERS-CoV infection of Vero E6 cells",[1],8 nM
same,"IC50, plaque-neutralization test, SARS-CoV-2 infection of Vero E6 cells",[2],80 nM

# Reference: US20250257099A1 (priority 2022, published 2025)
